Consider 13 proteins from paper doi:10.1101/2024.07.02.601760, “Multi-dimensional demarcation of phylogenetic groups of plant 14-3-3 isoforms using biochemical signatures” (bioRxiv, 2024).

Series [1] concerns the molecule itself. Nature of the series: SEC-MALS; Superdex 200 Increase 10/300, 0.8 ml/min; 65 µl of ~3 mg/ml or 100 μM per monomer loaded; 20 mM Tris-HCl pH 7.5, 150 mM NaCl, 5 mM βME, 3 mM NaN3; samples before preparative SEC; self-association, monomers to dimer (small tetramer peak for six isoforms).
Series [2] deals with the molecule itself. Nature of the series: native gel or EMSA; native PAGE, Tris-glycine pH 8.6, 15% or 15-25% gradient acrylamide, 2 h at room temperature, samples 0.33 mg/ml in SEC buffer; self-association, dimer to monomers.

B1: Arabidopsis thaliana 14-3-3 lambda (natural protein, UniProt P48349 1-248, looked up)
chain: MAATLGRDQYVYMAKLAEQAERYEEMVQFMEQLVTGATPAEELTVEERNLLSVAYKNVIGSLRAAWRIVSSIEQKEESRKNDEHVSLVKDYRSKVESELSSVCSGILKLLDSHLIPSAGASESKVFYLKMKGDYHRYMAEFKSGDERKTAAEDTMLAYKAAQDIAAADMAPTHPIRLGLALNFSVFYYEILNSSDKACNMAKQAFEEAIAELDTLGEESYKDSTLIMQLLRDNLTLWTSDMQEQMDEA
notes: 14-3-3 lambda, Arabidopsis thaliana, non-epsilon group; construct provided by Prof; Robert J. Ferl; source: E. coli C41(DE3), purified (IMAC, thrombin cleavage of the His6-tag, subtractive IMAC, preparative SEC; aliquots before preparative SEC for SEC-MALS)
Turning to B1, the “stoichiometry N” value in series [1] stood at 2.

B2: Arabidopsis thaliana 14-3-3 nu (natural protein, UniProt Q96300 1-265, looked up)
chain: MSSSREENVYLAKLAEQAERYEEMVEFMEKVAKTVDTDELTVEERNLLSVAYKNVIGARRASWRIISSIEQKEESRGNDDHVSIIKDYRGKIETELSKICDGILNLLDSHLVPTASLAESKVFYLKMKGDYHRYLAEFKTGAERKEAAESTLVAYKSAQDIALADLAPTHPIRLGLALNFSVFYYEILNSPDRACSLAKQAFDEAISELDTLGEESYKDSTLIMQLLRDNLTLWNSDINDEAGGDEIKEASKHEPEEGKPAETGQ
notes: 14-3-3 nu, Arabidopsis thaliana (Col-0), non-epsilon group; source: E. coli BL21(DE3), purified (IMAC, thrombin cleavage of the His6-tag, subtractive IMAC, preparative SEC; aliquots before preparative SEC for SEC-MALS)
For the protein B2, in series [1], the “stoichiometry N” value was found to be 2.

B3: Arabidopsis thaliana 14-3-3 psi (natural protein, UniProt P42644 1-255, looked up)
chain: MSTREENVYMAKLAEQAERYEEMVEFMEKVAKTVDVEELSVEERNLLSVAYKNVIGARRASWRIISSIEQKEESKGNEDHVAIIKDYRGKIESELSKICDGILNVLEAHLIPSASPAESKVFYLKMKGDYHRYLAEFKAGAERKEAAESTLVAYKSASDIATAELAPTHPIRLGLALNFSVFYYEILNSPDRACSLAKQAFDDAIAELDTLGEESYKDSTLIMQLLRDNLTLWTSDMTDEAGDEIKEASKPDGAE
notes: 14-3-3 psi, Arabidopsis thaliana, non-epsilon group; construct provided by Prof; Robert J. Ferl; source: E. coli C41(DE3), purified (IMAC, thrombin cleavage of the His6-tag, subtractive IMAC, preparative SEC; aliquots before preparative SEC for SEC-MALS)
As to B3, the “stoichiometry N” value in series [1] was 2.

B4: Arabidopsis thaliana 14-3-3 omega (natural protein)
chain: MASGREEFVYMAKLAEQAERYEEMVEFMEKVSAAVDGDELTVEERNLLSVAYKNVIGARRASWRIISSIEQKEESRGNDDHVTAIREYRSKIETELSGICDGILKLLDSRLIPAAASGDSKVFYLKMKGDYHRYLAEFKTGQERKDAAEHTLAAYKSAQDIANAELAPTHPIRLGLALNFSVFYYEILNSPDRACNLAKQAFDEAIAELDTLGEESYKDSTLIMQLLRDNLTLWTSD
notes: 14-3-3 omega, Arabidopsis thaliana, non-epsilion group; pET28a construct obtained by gene synthesis; source: E. coli BL21(DE3), purified (IMAC, thrombin cleavage of the His6-tag, subtractive IMAC, preparative SEC; aliquots before preparative SEC for SEC-MALS)
As for B4, the “stoichiometry N” value in series [1] turned out to be 2.

B5: Arabidopsis thaliana 14-3-3 upsilon (natural protein, UniProt P42645 1-268, looked up)
chain: MSSDSSREENVYLAKLAEQAERYEEMVEFMEKVAKTVETEELTVEERNLLSVAYKNVIGARRASWRIISSIEQKEDSRGNSDHVSIIKDYRGKIETELSKICDGILNLLEAHLIPAASLAESKVFYLKMKGDYHRYLAEFKTGAERKEAAESTLVAYKSAQDIALADLAPTHPIRLGLALNFSVFYYEILNSSDRACSLAKQAFDEAISELDTLGEESYKDSTLIMQLLRDNLTLWTSDLNDEAGDDIKEAPKEVQKVDEQAQPPPSQ
notes: 14-3-3 upsilon, Arabidopsis thaliana (Col-0), non-epsilon group; source: E. coli BL21(DE3), purified (IMAC, thrombin cleavage of the His6-tag, subtractive IMAC, preparative SEC; aliquots before preparative SEC for SEC-MALS)
B5: in series [1], the “stoichiometry N” value is 2.

B6: Arabidopsis thaliana 14-3-3 mu (natural protein, UniProt Q96299 1-263, looked up)
chain: MGSGKERDTFVYLAKLSEQAERYEEMVESMKSVAKLNVDLTVEERNLLSVGYKNVIGSRRASWRIFSSIEQKEAVKGNDVNVKRIKEYMEKVELELSNICIDIMSVLDEHLIPSASEGESTVFFNKMKGDYYRYLAEFKSGNERKEAADQSLKAYEIATTAAEAKLPPTHPIRLGLALNFSVFYYEIMNAPERACHLAKQAFDEAISELDTLNEESYKDSTLIMQLLRDNLTLWTSDISEEGGDDAHKTNGSAKPGAGGDDAE
notes: 14-3-3 mu, Arabidopsis thaliana, epsilon group; pET28a construct obtained by gene synthesis; source: E. coli BL21(DE3), purified (IMAC, thrombin cleavage of the His6-tag, subtractive IMAC, preparative SEC; aliquots before preparative SEC for SEC-MALS)
Turning to B6, the “stoichiometry N” value in series [1] turned out to be 2.

B7: Arabidopsis thaliana 14-3-3 epsilon (natural protein, UniProt P48347 1-254, looked up)
chain: MENEREKQVYLAKLSEQTERYDEMVEAMKKVAQLDVELTVEERNLVSVGYKNVIGARRASWRILSSIEQKEESKGNDENVKRLKNYRKRVEDELAKVCNDILSVIDKHLIPSSNAVESTVFFYKMKGDYYRYLAEFSSGAERKEAADQSLEAYKAAVAAAENGLAPTHPVRLGLALNFSVFYYEILNSPESACQLAKQAFDDAIAELDSLNEESYKDSTLIMQLLRDNLTLWTSDLNEEGDERTKGADEPQDEN
notes: 14-3-3 epsilon, Arabidopsis thaliana, epsilon group; pET28a construct obtained by gene synthesis; source: E. coli BL21(DE3), purified (IMAC, thrombin cleavage of the His6-tag, subtractive IMAC, preparative SEC; aliquots before preparative SEC for SEC-MALS)
Turning to B7, in series [1], the “stoichiometry N” value stood at 2.

B8: Arabidopsis thaliana 14-3-3 iota T32F (natural protein, UniProt Q9C5W6 1-268, looked up)
chain: MSSSGSDKERETFVYMAKLSEQAERYDEMVEFMKKVARVNSELTVEERNLLSVGYKNVIGARRASWRIMSSIEQKEESKGNESNVKQIKGYRQKVEDELANICQDILTIIDQHLIPHATSGEATVFYYKMKGDYYRYLAEFKTEQERKEAAEQSLKGYEAATQAASTELPSTHPIRLGLALNFSVFYYEIMNSPERACHLAKQAFDEAIAELDTLSEESYKDSTLIMQLLRDNLTLWTSDLPEDGGEDNIKTEESKQEQAKPADATEN
notes: 14-3-3 iota, Arabidopsis thaliana, single mutant T32F made by megaprimer PCR on pET28a-14-3-3 iota; Same limits as m9; also called M1; source: E. coli BL21(DE3), purified (IMAC, thrombin cleavage of the His6-tag, subtractive IMAC, preparative SEC)
Consider B8, for which the binding result in series [2] is on record as “binds”.

B9: Arabidopsis thaliana 14-3-3 iota N84H (natural protein, UniProt Q9C5W6 1-268, looked up)
chain: MSSSGSDKERETFVYMAKLSEQAERYDEMVETMKKVARVNSELTVEERNLLSVGYKNVIGARRASWRIMSSIEQKEESKGNESHVKQIKGYRQKVEDELANICQDILTIIDQHLIPHATSGEATVFYYKMKGDYYRYLAEFKTEQERKEAAEQSLKGYEAATQAASTELPSTHPIRLGLALNFSVFYYEIMNSPERACHLAKQAFDEAIAELDTLSEESYKDSTLIMQLLRDNLTLWTSDLPEDGGEDNIKTEESKQEQAKPADATEN
notes: 14-3-3 iota, Arabidopsis thaliana, single mutant N84H made by megaprimer PCR on pET28a-14-3-3 iota; Same limits as m9; also called M2; source: E. coli BL21(DE3), purified (IMAC, thrombin cleavage of the His6-tag, subtractive IMAC, preparative SEC)
As for B9, in series [2], the binding result is given as “binds”.

B10: Arabidopsis thaliana 14-3-3 iota G54A (natural protein, UniProt Q9C5W6 1-268, looked up)
chain: MSSSGSDKERETFVYMAKLSEQAERYDEMVETMKKVARVNSELTVEERNLLSVAYKNVIGARRASWRIMSSIEQKEESKGNESNVKQIKGYRQKVEDELANICQDILTIIDQHLIPHATSGEATVFYYKMKGDYYRYLAEFKTEQERKEAAEQSLKGYEAATQAASTELPSTHPIRLGLALNFSVFYYEIMNSPERACHLAKQAFDEAIAELDTLSEESYKDSTLIMQLLRDNLTLWTSDLPEDGGEDNIKTEESKQEQAKPADATEN
notes: 14-3-3 iota, Arabidopsis thaliana, single mutant G54A made by megaprimer PCR on pET28a-14-3-3 iota; Same limits as m9; also called M3; source: E. coli BL21(DE3), purified (IMAC, thrombin cleavage of the His6-tag, subtractive IMAC, preparative SEC)
Turning to B10, in series [2], the binding result is “binds”.

B11: Arabidopsis thaliana 14-3-3 iota (natural protein, UniProt Q9C5W6 1-268, looked up)
chain: MSSSGSDKERETFVYMAKLSEQAERYDEMVETMKKVARVNSELTVEERNLLSVGYKNVIGARRASWRIMSSIEQKEESKGNESNVKQIKGYRQKVEDELANICQDILTIIDQHLIPHATSGEATVFYYKMKGDYYRYLAEFKTEQERKEAAEQSLKGYEAATQAASTELPSTHPIRLGLALNFSVFYYEIMNSPERACHLAKQAFDEAIAELDTLSEESYKDSTLIMQLLRDNLTLWTSDLPEDGGEDNIKTEESKQEQAKPADATEN
notes: 14-3-3 iota, Arabidopsis thaliana, epsilon group; pET28a construct obtained by gene synthesis; also called iota WT; source: E. coli BL21(DE3), purified (IMAC, thrombin cleavage of the His6-tag, subtractive IMAC, preparative SEC; aliquots before preparative SEC for SEC-MALS)
On to B11, for which the “stoichiometry N” value in series [1] was determined as 2.

B12: Arabidopsis thaliana 14-3-3 chi (natural protein, UniProt P42643 1-267, looked up)
chain: MATPGASSARDEFVYMAKLAEQAERYEEMVEFMEKVAKAVDKDELTVEERNLLSVAYKNVIGARRASWRIISSIEQKEESRGNDDHVSLIRDYRSKIETELSDICDGILKLLDTILVPAAASGDSKVFYLKMKGDYHRYLAEFKSGQERKDAAEHTLTAYKAAQDIANSELAPTHPIRLGLALNFSVFYYEILNSPDRACNLAKQAFDEAIAELDTLGEESYKDSTLIMQLLRDNLTLWTSDMQDDVADDIKEAAPAAAKPADEQQS
notes: 14-3-3 chi, Arabidopsis thaliana, non-epsilon group; source: E. coli BL21(DE3), purified (IMAC, thrombin cleavage of the His6-tag, subtractive IMAC, preparative SEC; aliquots before preparative SEC for SEC-MALS)
B12: in series [1], the “stoichiometry N” value turned out to be 2.

B13: Arabidopsis thaliana 14-3-3 phi (natural protein, UniProt P46077 1-267, looked up)
chain: MAAPPASSSAREEFVYLAKLAEQAERYEEMVEFMEKVAEAVDKDELTVEERNLLSVAYKNVIGARRASWRIISSIEQKEESRGNDDHVTTIRDYRSKIESELSKICDGILKLLDTRLVPASANGDSKVFYLKMKGDYHRYLAEFKTGQERKDAAEHTLTAYKAAQDIANAELAPTHPIRLGLALNFSVFYYEILNSPDRACNLAKQAFDEAIAELDTLGEESYKDSTLIMQLLRDNLTLWTSDMQDESPEEIKEAAAPKPAEEQKEI
notes: 14-3-3 phi, Arabidopsis thaliana, non-epsilon group; construct provided by Prof; Robert J. Ferl; source: E. coli C41(DE3), purified (IMAC, thrombin cleavage of the His6-tag, subtractive IMAC, preparative SEC; aliquots before preparative SEC for SEC-MALS)
As for B13, the “stoichiometry N” value in series [1] stood at 2.
